Results taken from paper PMC4297519 (Nature, 2014).

Molecular target: the molecule itself
Test: crystal structure

B1: human CEACAM1 IgV domain (GST tag removed) (domain or fragment)
chain: QLTTESMPFNVAEGKEVLLLVHNLPQQLFGYSWYKGERVDGNRQIVGYAIGTQQATPGPANSGRETIYPNASLLIQNVTQNDTGFYTLQVIKSDLVNEEATGQFHVY
Question: Does B1 bind?
Answer: binds
